B1: CPEB3 Ribozyme (parent)
chain: UAACAGGGGGCCACAGCAGAAGCGUUCACGUCGCAGCCCCUGUCAGAUUCUGGUGAAUCUGCGAAUUCUGCUGUAUAUCUC

The text below walks through data of the RNAGym collection of RNA variant scans (doi:10.1093/nar/gkz1192).

Variants of B1 are the subject of this data set. As to the kind of experiment: self-cleavage, relative activity (ratio to wild type); higher = more cleavage; in vitro, sequencing. The method, boiled down:
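Relative activity was defined as the cleaved/total read fraction for a variant divided by the same fraction for the unmutated ribozyme. CPEB3 self-cleaving ribozyme libraries were made by rounds of error-prone PCR, barcoded, and transcribed in vitro with T7 RNA polymerase for 5 hours at 37°C, and cleavage ran through transcription plus a 15 min DNase I step before EDTA. Illumina sequencing of template-switched reverse transcripts gave the reads, and DNA sequencing mapped the barcodes. Averages come from three batches, using variants with at least 5 reads.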
On to UAACAGGGGGCCACAGCAGAAGGGUUCACGUCGCAGCCCCUGUCAGAUUCUGGUGAAUCAGCGAAUUCUGCUGUAUAUCUC, for which the self-cleavage was found to be 0.19.
The value for UAACAGGGAGCCACAGCAGAAGCGUUCACGUCGCAGCCCCUGUCAGAUUCUGGUGAAGCUGCGAAUUCUGCUGUAUAUCUC was 0.08; that for UAACAGGGGGCCACAGCAGAAGCGUUCUCGUCGCAGCCCCUGUCAGAUCCUGGUGAAUCUGCGAAUUCUGCUGUAUAUCUC was 0.31.
For the variant UAACAGGGGGCCACAGCAGCAGCGUUCACGUCGCAGCCCCUGUCAGAUCCUGGUGAAUCUGCGAAUUCUGCUGUAUAUCUC, the self-cleavage came out at 0.17.
As for UAACAGGGGGCCACAGCAGAAGCGUUCACGUCGCAGCCCCAGUCAGAUUCUGGUGAAUCUGCGAAUUCGGCUGUAUAUCUC, the self-cleavage came to 0.33.
As for UAACAGUGGGCCACAGCAGAAGCGUUCACGUCGUAGCCCCUGUCAGAUUCUGGUGAAUCUGCGAAUUCUGCUGUAUAUCUC, the self-cleavage was found to be 0.07.
For UAACAGGGGGCCACAGCAGAAGCGUUCACGCCGCAGCCCCUGUCAGAUUCUGGUGAAUCUGCGAAGUCUGCUGUAUAUCUC, the self-cleavage was 0.35.
In the case of UAACAGGGGGCCACAGCAGAAGCGUUCACGUCGCAGCCCCUGUCAGAUUCUGGUGAAUCUGCGAAUUCUCUUGUAUAUCUC, the self-cleavage was found to be 0.3.
UAACAGGGGGCCACAGCAGGAGCGUUCACGUCGCAGCCCCUGUCAGUUUCUGGUGAAUCUGCGAAUUCUGCUGUAUAUCUC: the self-cleavage came to 0.42.
To UAACAAGGGGCCACAGCAGAAGCGUUCACGUCGCAGCCACUGUCAGAUUCUGGUGAAUCUGCGAAUUCUGCUGUAUAUCUC belongs 0.49.
On to UGACAGGGGGCCACAGCAGAAGCGUUCACGUCGCACCCCCUGUCAGAUUCUGGUGAAUCUGCGAAUUCUGCUGUAUAUCUC, for which the self-cleavage stood at 0.24.
On to UAACAGGGGGCCACAGCAGAAGCGUUCACGUAGCAGCCCCUGUCAGACUCUGGUGAAUCUGCGAAUUCUGCUGUAUAUCUC, for which the self-cleavage was 0.22.
Take UAACAGGGGGCCACAGCAGAAGCGUUCACGUCGCAGCCCCUGUCAGAUUCUGGAGAAUCUGCGAAUUAUGCUGUAUAUCUC: the self-cleavage is 0.44.
As to UAAUAGCGGGCCACAGCAGAAGCGUUCACGUCGCAGCCCCUGUCAGAUUCUGGUGAAUCUGCGAAUUCUGCUGUAUAUCUC, the self-cleavage amounted to 0.13.
As for UAACAGGGGGCCACAGCAGAAGCGGUCACGUCGCAGCCCCUGUCAGAUUCUGGUGAAUCUGCGAAUUCUGCAGUAUAUCUC, the self-cleavage turned out to be 0.21.
Take UAACAGGGGGCCACAGCAGAAGCGUUCACGUCGCAGCCCCUGCCGGAUUCUGGUGAAUCUGCGAAUUCUGCUGUAUAUCUC: the self-cleavage was determined as 0.5.
Regarding UAACAGGGGGCCACAGCAGAAGCGUCCACGUCGCAGCCCCUGUCAGAUUCUGGUGAAUCUGCGAAUUCUGCUGUAAAUCUC, the self-cleavage amounted to 0.53.
As to UAACAGGGGGCCACAGCAGAGGCGUUCACGUCGCAGCCACUGUCAGAUUCUGGUGAAUCUGCGAAUUCUGCUGUAUAUCUC, the self-cleavage came out at 0.1.
On to UAACAGGGGGCCACAGCAGAAGCGUUCACGUCGCAGCCCCUGUGAGAUUCUGGUGAAUCCGCGAAUUCUGCUGUAUAUCUC, for which the self-cleavage came out at 0.38.
To UAACAGGGGACCACAGCAGAAGCGUUCACGUCGCAGCCCCUGUCAGAUUCUGGUGAAUCUGCGAAUUCAGCUGUAUAUCUC belongs 0.11.
The value for UAACAGGGGGCCUCAGCCGAAGCGUUCACGUCGCAGCCCCUGUCAGAUUCUGGUGAAUCUGCGAAUUCUGCUGUAUAUCUC was 0.42; that for UAACAGGGGGCCUCAGUAGAAGCGUUCACGUCGCAGCCCCUGUCAGAUUCUGGUGAAUCUGCGAAUUCUGCUGUAUAUCUC was 0.92.
Consider UAACAGGGGGCCACAGCAGAAGCGUUCACGUCGCUGCCCCUGUCAUAUUCUGGUGAAUCUGCGAAUUCUGCUGUAUAUCUC, for which the self-cleavage came to 0.19.
On to UAACAGGGGGCCACAGCAGAAGCGUUCACGUCGCAGCCCCUGACAGAUUCUGGUGAAUCUACGAAUUCUGCUGUAUAUCUC, for which the self-cleavage was 0.97.
Consider UAACAGGGGGCCACAGCAGAAGCGAUCACGUCGCAGCCCCUGUCUGAUUCUGGUGAAUCUGCGAAUUCUGCUGUAUAUCUC, for which the self-cleavage came out at 0.19.
With UAACAGGGGGCCACAGCAGAAGCGUUCACGUCGCAGCCCUUGUCAGAUUCUGGUGAAUCUGCGAAUUCUGCUGUAUAUCAC, the self-cleavage came to 0.67.
The value for UAACAGGGGGCCACAGCAGAAGCGUUCACGUCGCAGCCCCUGUCAGAUUCUGGUGAAUCUGCGAAUUCUGCCGUAUUUCUC was 1.21; that for UAACAGGGGGCCACAGCAGAAGCGUUCACGUCCCAGCCCCUGUCAGAUUCUGGUGAAUCUGCGAAUUCUGCUGUAUACCUC was 0.09; that for UAACAGGGGGCCAAAGCAGAAGCGUUCACGUCGCAGCCCCUGUCAGAUUCUGGUGAAUCUGCGAAUUCAGCUGUAUAUCUC was 0.48.
UAACAGGGGGCCACAGCAGAAGCGUUCACGUCGCAGCCCCUGUCGGAGUCUGGUGAAUCUGCGAAUUCUGCUGUAUAUCUC: the self-cleavage stood at 0.19.
As for UAACAGGAGGCCACAGCAGAAGCGUUCACGUCGCAGCCCCUGUCAGAUUCUGGUGAAUCUGCGAAUUCUGCUGUAAAUCUC, the self-cleavage was found to be 0.49.
In the case of UAACAGGGGGCCACAGCAGAAGCGUUCACGUCGCAUCCCCUGUCAGAUUCUGGUGAAUCUGCGAAUUCUGCCGUAUAUCUC, the self-cleavage amounted to 0.13.
Take UAACAGGGGGCCACAGCGGAAGCGUUCACGUCGCAGCCCCUGUCAGAUUCUGGUGAAUCUGGGAAUUCUGCUGUAUAUCUC: the self-cleavage was determined as 0.13.
On to UAACAGGGGGCCACAGCAGAAGCGUUCACGUCGCAGCCCCUGUCAGAUUCUGGUGAAACUGCGAAUUCUGCUGUAUCUCUC, for which the self-cleavage stood at 0.33.
